Here are results for one molecule from patent US8133978 (GlaxoSmithKline, dated 2012).

Test [1] deals with T1, Human interleukin-18 (recombinant human IL-18) (human, UniProt Q14116 37-193).
T1 sequence: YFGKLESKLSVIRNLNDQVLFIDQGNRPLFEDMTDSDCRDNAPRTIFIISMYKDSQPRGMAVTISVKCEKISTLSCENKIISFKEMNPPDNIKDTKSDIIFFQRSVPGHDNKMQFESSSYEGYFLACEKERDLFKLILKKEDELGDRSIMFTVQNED
Nature of the test: cell-based or functional assay.

Test [2] deals with T1, Human interleukin-18 (recombinant human …). Description: SPR, Biacore T100, Protein A capture, 25 C, mean n = 4. The method, then: (§1) The methodology was basically the same as for the method used in Example 4a above; Protein A was immobilised on a CM5 chip at densities of between 2000-6000 RU's by primary amine coupling. Runs were carried out in HBS-EP (Biacore™). The anti-IL-18 antibodies were captured to densities of between 100-500 RUs, human IL-18 was passed over this captured surface at concentrations between 16-0.0625 nM, with 0 nM concentration (i.e., a buffer only injection of captured antibody) used for double referencing. Regeneration after each injection of IL-18 was by mild acidic elution using two injections of 10 mM glycine, pH1.5. […] The binding curves obtained were analysed using the analysis software inherent to the T100 machine using the 1:1 model of binding. Runs were carried out at the temperatures indicated.
(§2) These experiments were carried out as described above. Table 6 details the kinetic parameters obtained. […] H1L2 has a better on-rate (ka) than H1L1.
In general terms: SPR reads the build-up and loss of mass on a sensor chip optically.

Test [3] has the same target. Description: SPR, Biacore T100, Protein A capture, 37 C, mean n = 6. Here is the method: as §1, §2
The target is the same in test [4]. Nature of the test: SPR, Biacore 3000, antibody captured on Protein A, 25 C. The method, then: Biacore™ kinetic analysis of the humanised 2C10 antibodies was carried out on a Biacore™ 3000 instrument using Protein A capture of the antibodies in HBS-EP buffer (Biacore™). Briefly, Protein A was immobilised on a CM5 chip by primary amine coupling, using manufacturers recommended protocol, to densities around 2000-4000 resonance units (RU's). Humanised antibody was then passed over the Protein A surface and captured to levels of around 200-500 RU's, after a period of stabilisation, IL-18 (human or Rhesus) was passed over the captured antibody surface at defined concentrations and binding sensorgrams were obtained. […] All curves were double referenced against a buffer injection instead of IL-18 and the data was fitted to the 1:1 binding model using the global fit parameters in BiaEval 4.1. Off-rate ranking experiments were set up using the same Protein A capture method, however, only a single concentration of IL-18 was used (10 nM). Whilst the data was fitted using the same binding model as the kinetic analysis, since only one concentration of analyte was used on the off-rate is reported, this value is useful for ranking rather than giving an exact kinetic measurement and was used as a way of selecting which antibodies would be further investigated. […]

Test [5] shares this target. Nature of the test: SPR, Biacore 3000, antibody captured on Protein A, 37 C. Here is the method:
(§3) Biacore™ kinetic analysis of the humanised 2C10 antibodies was carried out on a Biacore™ 3000 instrument using Protein A capture of the antibodies in HBS-EP buffer (Biacore™). Briefly, Protein A was immobilised on a CM5 chip by primary amine coupling, using manufacturers recommended protocol, to densities around 2000-4000 resonance units (RU's). Humanised antibody was then passed over the Protein A surface and captured to levels of around 200-500 RU's, after a period of stabilisation, IL-18 (human or Rhesus) was passed over the captured antibody surface at defined concentrations and binding sensorgrams were obtained. […] All curves were double referenced against a buffer injection instead of IL-18 and the data was fitted to the 1:1 binding model using the global fit parameters in BiaEval 4.1. Off-rate ranking experiments were set up using the same Protein A capture method, however, only a single concentration of IL-18 was used (10 nM). Whilst the data was fitted using the same binding model as the kinetic analysis, since only one concentration of analyte was used on the off-rate is reported, this value is useful for ranking rather than giving an exact kinetic measurement and was used as a way of selecting which antibodies would be further investigated.
(§4) Based upon these observations selected antibodies were investigated in greater detail for binding to human and Rhesus IL-18 at 37° C. The data shown in Table 4b for human IL-18 is the mean (and standard deviation) of six separate determinations.

The next test addresses T2, Rhesus IL-18 (rhesus (rhesus/cynomolgus)).
T2 construct: also called Rhesus/Cynomolgus IL-18; rhesus/cynomolgus IL-18
The test is described as above. The method, then:
as §3, §4

For test [6], the target named is T1, Human interleukin-18 (recombinant human …). Nature of the test: SPR, Biacore T100, antibody captured on Protein A, 15 C.
Test [7] shares this target. Description: SPR, Biacore T100, antibody captured on Protein A, 25 C. Here is the method: as §1
(§5) This experiment was carried out using the above method at various temperatures. […] Table 5 details the kinetic values used to create these figures.

Test [8] shares this target. Description: SPR, Biacore T100, antibody captured on Protein A, 37 C. Here is the method:
as §1, §5

Test [9] has the same target. Description: ELISA, antibody on plate, human IL-18 captured, detected by 16D10; 37 C, in serum. Here is the method: (§6) ELISA was carried out with the three Humanised H1 variants; H1L1, H1L2 and H1L3 to assess binding to human IL-18 at room temperature and at 37° C. in both human serum and in block solution (PBS 0.05% TWEEN with 1% BSA (w/v)). The Humanised antibody variants were immobilised on Nunc Maxisorp 96-well plates at 2.5 µg/ml. Capture of 5 ng/ml of recombinant human IL-18 was carried out either at room temperature or 37° C. in human serum or block solution. Anti-IL-18 mouse monoclonal antibody 16D10 was added. The bound mouse antibody was detected using anti-mouse kappa peroxidase conjugate (Serotec MCA 1291P). Representative EC50 values generated from the study data are illustrated in Table 9.
(In general: ELISA stands for enzyme-linked immunosorbent assay.)

Test [10] shares this target. Description: ELISA, antibody on plate, human IL-18 captured, detected by 16D10; room temperature, in serum; room temperature incubation, in presence of serum. The method, then: as §6

B1: H1L2 humanised anti-IL-18 antibody (antibody, human IgG1, kappa, V domains shown)
VH: QVQLVQSGAEVKKPGASVKVSCKVSGEISTGYYFHWVRQAPGKGLEWMGRIDPEDDSTKYAERFKDRVTMTEDTSTDTAYMELSSLRSEDTAVYYCTTWRIYRDSSGRPFYVMDAWGQGTLVTVSS
VL: DIQMTQSPSSVSASVGDRVTITCLASEDIYTYLTWYQQKPGKAPKLLIYGANKLQDGVPSRFSGSGSGTDYTLTISSLQPEDFATYYCLQGSKFPLTFGQGTKLEIKR
notes: Human IgG1 / kappa
In general, Kd refers to the constant that tells how readily two partners part at equilibrium. Usually EC50 stands for the concentration needed to bring the measured effect to its halfway point. Consider B1, for which, in [1], the “% change vs 2C10 (IC50, KG-1 bioassay)” value was determined as 61.5%. In addition, the Kd in test [2] was found to be 16.3 pM; in test [3], 46 pM; in test [4], 30.3 pM; in test [5] it was 197 pM; in the test with Rhesus IL-18, 139 pM; in [6], 10 pM. Also, the Kd is 12.5 pM in [7] and 22.3 pM in test [8]. Further, the EC50 in test [9] and in test [10] was 9.79 ng/mL in each case.
